Measured values: patent US20220356246A1 (NANJING IMMUNOPHAGE BIOTECH, published 2022)

Columns and labels:
[1] = target: T1, human ROR1 expressed on CHO-K1 cells (human, UniProt Q01973 30-937); test: flow cytometry on CHO-K1-ROR1 cells, PE anti-human IgG-Fc
T1 construct: whole, on cells; also called CHO-K1-ROR1
Experimental: CHO-K1 cell line was transduced with lentivector carrying human ROR1. CHO-K1-ROR1 cells were resuspended in FACS buffer and Fc receptors were blocked prior to incubation with purified ROR1 mAbs. 5×10⁵ cells in 100 μL FACS buffer were aliquoted to separate tubes and the purified mAb was added. Antibody concentration is from about 30 μg/mL to about 0.000508 μg/mL. Cells were incubated at 4 degrees for 1 hour, then washed twice with excess FACS buffer. Cells were resuspended in 100 μL FACS buffer and 0.5 μg of anti-human IgG-Fc (PE) secondary antibody (ab98596) was added to samples, incubated for 30 minutes and washed twice with excess FACS buffer.

Human ROR1-ECD = target: T2, Human ROR1-ECD (human, UniProt Q01973 30-406); test: BLI (Fortebio Octet RED96), mAb on AHC biosensor, human ROR1-ECD as analyte
T2 construct: extracellular domain; Analyte in the Fortebio Octet assay; also called ROR1-derived extracellular domain fragment
T2 sequence (Q01973 30-406): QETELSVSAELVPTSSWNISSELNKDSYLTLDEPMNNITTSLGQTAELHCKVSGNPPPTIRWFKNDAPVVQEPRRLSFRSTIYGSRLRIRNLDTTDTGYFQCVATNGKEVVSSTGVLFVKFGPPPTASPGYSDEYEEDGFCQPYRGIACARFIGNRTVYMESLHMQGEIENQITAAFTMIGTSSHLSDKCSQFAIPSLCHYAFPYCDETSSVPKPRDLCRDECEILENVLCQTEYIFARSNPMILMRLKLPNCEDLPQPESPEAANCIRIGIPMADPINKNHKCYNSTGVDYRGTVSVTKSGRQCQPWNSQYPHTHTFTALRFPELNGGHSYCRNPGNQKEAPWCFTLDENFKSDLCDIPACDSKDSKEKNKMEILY
Experimental: Human ROR1-ECD was diluted in KB buffer (0.1% BSA, 0.05% Tween 20, 1×PBS, pH 7.4) to various concentrations (from about 500 nM to about 62.5 nM), and the mAb was also diluted in KB buffer to 10 μg/mL. The mAb was loading to anti-hIgG Fc Capture (AHC) Biosensors (PALL, Fortebio), and the diluted Human ROR1-ECD was associated with Mab, then dissociated in KB buffer. Association (k-on) and dissociation (k-off) rate constants were calculated based on a 1:1 Langmuir binding model using Fortebio Date Analysis 7.1 software (PALL, Fortebio).

T1 sequence (Q01973 30-937): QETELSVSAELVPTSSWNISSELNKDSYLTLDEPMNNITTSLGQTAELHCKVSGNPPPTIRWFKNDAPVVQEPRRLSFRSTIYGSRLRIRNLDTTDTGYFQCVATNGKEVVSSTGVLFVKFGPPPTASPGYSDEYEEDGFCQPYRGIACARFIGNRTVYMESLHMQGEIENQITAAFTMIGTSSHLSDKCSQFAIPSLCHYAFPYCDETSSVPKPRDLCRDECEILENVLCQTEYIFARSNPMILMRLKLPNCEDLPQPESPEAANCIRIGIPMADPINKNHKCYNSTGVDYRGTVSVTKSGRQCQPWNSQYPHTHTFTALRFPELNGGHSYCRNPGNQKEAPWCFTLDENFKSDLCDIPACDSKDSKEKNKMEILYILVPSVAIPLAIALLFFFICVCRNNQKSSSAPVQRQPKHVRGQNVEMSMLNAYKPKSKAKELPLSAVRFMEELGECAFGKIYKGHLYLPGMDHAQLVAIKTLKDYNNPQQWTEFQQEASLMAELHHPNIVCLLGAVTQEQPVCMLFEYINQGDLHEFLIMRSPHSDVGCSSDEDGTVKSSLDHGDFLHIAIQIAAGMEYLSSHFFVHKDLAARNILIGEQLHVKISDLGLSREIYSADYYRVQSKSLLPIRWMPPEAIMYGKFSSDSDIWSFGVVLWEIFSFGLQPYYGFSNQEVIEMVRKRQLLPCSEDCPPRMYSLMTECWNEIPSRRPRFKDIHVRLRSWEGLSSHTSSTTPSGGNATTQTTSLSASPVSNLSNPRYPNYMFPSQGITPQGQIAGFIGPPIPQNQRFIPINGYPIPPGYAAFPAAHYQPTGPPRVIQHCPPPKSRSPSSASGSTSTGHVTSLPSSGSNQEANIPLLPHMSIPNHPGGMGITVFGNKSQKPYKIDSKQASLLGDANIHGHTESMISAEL

Row | binding result [1] | binding result (Human ROR1-ECD) | Binder
1 | binds | binds | anti-ROR1 antibody clone G6 (antibody, V domains shown) VH: EVQLVESGGGVVQPGGSLRLSCAASGFTFDDYAMHWVRQAPGKGLEWVSLISGDGGSTYYADSVKGRFTISRDNAKNSLYLQMNSLRAEDTAVYYCARDNWNDVYYYYGMDVWGQGTTVTVSS VL: DIQLTQSPSSLSASIGDTVTISCQASRDISDYLNWYQHKPGKAPKLLIYDASNLATGVPSRFSGSGSGTDFTLTIKSLQPEDVATYFCQQDDLLPLTFGGGTKVDIK
2 | binds | binds | anti-ROR1 antibody clone C3 (antibody, V domains shown, also called anti-ROR1 (clone C3)) VH: QVQLQESGPGLVKPSETLSLTCTVSGGSISSYYWSWIRQLPGKGLEWIGYMHYSGSTSYNPSLKGRLTISVDTSTNQFSLKLGSVTAADTAVYYCARYYYHDSSGYYSYFDYWGQGTLVTVSS VL: EIVLTQSPGTLSLSPGERATLSCRASQSVSSYLAWYQQKAGQAPRLLIYDASNRASGIPARFSGSGSGTDFTLTISSLEPEDFAVYYCQQRSNWPPTFGGGTKVEIK
3 | binds | binds | anti-ROR1 antibody clone G3 (antibody, V domains shown) VH: QVQLQQWGAGLLKPSETLSLTCAVYGGSFSGYYWSWIRQPPGKGLEWIGEINHSGSTSYNPSLKSRVTISVDTSKNQFSLKLSSVTAADTAVYYCARGHSSGWYRRYFDLWGRGTLVTVSS VL: EIVLTQSPATLSLSPGERATLSCRASQSVSSYLAWYQQKPGQAPRLLIYDASNRATGIPAKFSGSGSGTDFTLTISSLEPEDFAVYYCQQRSNWPPTFGGGTKVEIK
